Results: patent US20130095122A1, “Peptides or Antibodies Which Bind to Melanoma Inhibitory Activity (MIA) Protein” (priority 2010, published 2013)

B1: melanoma inhibitory activity (MIA) protein, recombinant human wild type (other)
chain: GPMPKLADRKLCADQECSHPISMAVALQDYMAPDCRFLTIHRGQVVYVFSKLKGRGRLFWGGSVQGDYYGDLAARLGYFPSSIVREDQTLKPGKVDVKTDKWDFYCQ
notes: In the HTFP assay one copy is labelled with Ru(bpy)3 (in solution) and the other is a biotin conjugate immobilised on streptavidin plates; 15N-enriched MIA was used for NMR; also called wt MIA; MIA wt (RTS)

What was measured:
[1] = system: hMSC; experiment: Hanging drop assay (chondrogenic differentiation); assay type: cell-based, human; conditions: after day 4 (FIG. 9)
Description: To generate spheroids the hMSC were detached from the culture flask by adding 1 ml Trypsin-EDTA (Provitro). After incubation for a 5 minutes 1 ml neutralizing solution (Provitro) and 8 ml HMSC proliferation medium were added. After centrifugation for 4 min at 1200 rpm and resuspension in Incomplete Chondrogenesis Induction Medium (DMEM with glucose (4.5 g/L), penicillin (400 units/ml) streptomycin (50 μg/ml), L-glutamine (300 μg/ml), sodium pyruvate (1 mM), L-ascorbic acid 2-phosphate (0.17 mM), L-proline ([…]), dexamethasone (1 μM) and ITS premix (BD Biosciences, Heidelberg, Germany)), the cells were counted and adjusted to 50,000 cells/ml. 20% methocel (6 g methyl cellulose (Sigma-Aldrich, Munich, Germany), 250 ml basal medium)) was added and 25 μl of the cells suspension were dropped onto the cover of a 9 mm petri dish. For each experimental condition 10 drops were used. The petri dish was filled with PBS and the cover dish was inverted and incubated for 72 h under a humidified atmosphere of 8% CO2 at 37° C. for 1, 2, 4 and 7 d followed by RNA isolation or alcian blue staining. For treatment, TGF-beta3 (10 ng/ml, Biomol, Hamburg, Germany) was added. At day 4 NA was extracted and analysed. The experiment was repeated 4 times.

[2] = molecular target: T1, MIA protein dimer (Homo sapiens, UniProt Q16674); experiment: Western blot analysis of MIA dimer bands; assay type: biochemical; conditions: western blotting, FIG. 6
T1 construct: made in house; host or cells: cell-free Rapid Translation System RTS 500 E. coli HY Disulfite Kit (Roche)
T1 sequence (Q16674 25-131): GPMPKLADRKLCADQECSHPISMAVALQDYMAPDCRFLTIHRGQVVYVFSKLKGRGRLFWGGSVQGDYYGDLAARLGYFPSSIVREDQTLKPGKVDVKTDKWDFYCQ
Description: (§1) Protein samples were denaturated at 70° C. for 10 min after addition of reducing and denaturing Roti-Load buffer (Roth, Karlsruhe, Germany) and subsequently separated on sodium dodecyl sulfate 12.75% polyacrylamid gels (SDS-PAGE) (Invitrogen, Groningen, The Netherlands). In the multimerization studies, MIA protein (1 μg) was incubated with AR71 (2.5 μg) overnight at RT before being treated as described above. After transferring the proteins onto a polyvinylidene fluoride (PVDF) membrane (BioRad, Richmond, Va., USA), the membrane was blocked using 3% BSA/PBS for 1 h at RT and incubated with a 1:150 dilution of primary polyclonal rabbit anti MIA antibody (Biogenes, Berlin, Germany) in 3% BSA/PBS overnight at 4° C. After washing in PBS the membrane was incubated with a 1:2000 dilution of an […] coupled secondary antibody (Chemikon, Hofheim, Germany) for 2 h at RT. Finally, after washing steps, immunoreactions were visualized by nitro blue tetrazolium/5-bromo-4-chloro-3-indolyl phosphate (NBT/BCIP) (Invitrogen, Karlsruhe, Germany) staining.

[3] = system: Sox9 mRNA in human MSC; experiment: Micromass assay (chondrogenic differentiation induced by TGFβ3); assay type: cell-based; conditions: after days 3 and 7 (FIG. 8)
Description: For analysis of chondrogenesis human MSC differentiation was performed in high density culture. For this, 3×10^5 cells were seeded into each well of a six-well plate. Cells were cultured for the indicated period in induction medium including DMEM (PAA), high glucose (Sigma), 20% fetal calf serum (FCS, PAN Biotech GmbH), MEM Vitamins (Invitrogen), penicillin (100 U/ml), streptomycin (10 μg/ml) (both Sigma), Amphotericin B (2.5 μg/ml) (PAN Biotech GmbH), 0.1 μM dexamethasone, 1 mM sodium pyruvate, 0.17 mM ascorbic acid-2-phosphate, 0.35 mM proline (all Sigma), insulin (5 μg/ml), transferring (5 μg), selenious acid (5 ng) (ITS Premix, Becton Dickinson) and 10 ng/ml human TGF-β3 (R&D Systems). The medium was changed every second day. All groups were done in triplicate. Each experiment was repeated three times. Analysis was performed on RNA level.

[4] = system: Mel Im melanoma cells; experiment: Boyden chamber invasion assay (MIA activity); assay type: cell-based, human; conditions: MIA pre-incubated with peptide, Mel Im cells (FIG. 7)
Description: Invasion assays were performed in Boyden Chambers containing polycarbonate filters with 8-μm pore size (Neuro Probe, Gaithersburg, Md., USA) essentially as described previously.^13 Filters were coated with matrigel, a commercially available reconstituted basement membrane (diluted 1:3 in H2O; BD Bioscience, Bradford, Mass., USA). The lower compartment was filled with fibroblast-conditioned medium used as a chemo attractant. Mel Im melanoma cells were harvested by trypsinization for 2 min at RT, resuspended in DMEM without FCS at a density 2.5×10^4 cells/mL, and placed in the upper compartment of the chamber. Except for the control experiment with untreated cells and experiments where cells were only treated with the respective peptide, MIA was added to the cell suspension at a final concentration of 200 ng/mL. Peptide AR71 (sequence: Ac-FHWRYPLPLPGQ-NH2) was used at a final concentration of 1 μM. MIA expressing murine B16 melanoma cells stably co-transfected with Sig-AR71-HisTag containing pCMX-PL1 vector^27 and an antibiotic resistance comprising plasmid (pCDNA3), and the respective mock control were also investigated for their ability to migrate. Therefore, cells were harvested by trypsinization for 2 min at RT, resuspended in DMEM without FCS at a density 2.5×10^4 cells/mL, and placed in the upper compartment of the chamber. After incubation at 37° C. for 4 h filters were removed. Cells adhering to the lower surface of the filter were fixed, stained, and counted. Experiments were carried out in triplicates and repeated at least three times.

[5] = molecular target: B1; experiment: HTFP competition assay
[6] = molecular target: the molecule itself; experiment: HTFP assay: MIA-Ru(bpy)3 on immobilised MIA-biotin, increase in FP signal
Description: (§2) In the control lanes the FP signal of MIA-Ru(bpy)₃ was measured in a well coated with MIA-biotin compared to an uncoated well. The significant increase in FP in the well coated with MIA-biotin indicates binding of MIA-Ru(bpy)₃ to the immobilized MIA-biotin. The binding of MIA-inhibitory compound AR71 promotes dissociation of MIA dimers and displaces the surface-bound MIA-Ru(bpy)₃, as reflected by a decrease in fluorescence polarization signal. […] Pre-incubation of MIA with the respective inhibitory peptide results in a complete neutralization of the MIA effect.
(§3) All measurements were performed at RT on a Polarstar Optima microplate reader (BMG Labtech, Offenburg, Germany). A 390-10 nm bandpass filter was used for excitation while a 520 nm longpass filter was used for the emission light. Even though the extinction coefficient is higher at longer wavelengths, the inventors chose a shorter excitation wavelength as this led to higher polarization values. MIA-Ru(bpy)₃ was prepared and tested for functional activity as described previously.¹⁴ A MIA-Ru(bpy)₃ concentration of 55 fM was used in all experiments. […] All measurements were performed in DPBS without calcium or magnesium (PAN Biotech GmbH, Aidenbach, Germany).

[7] = molecular target: the molecule itself; experiment: Western blot, dimer band (FIG. 1B legend)
Description: as §1, with “In” for “Protein samples were denaturated at 70° C. for 10 min after addition of reducing and denaturing Roti-Load buffer (Roth, Karlsruhe, Germany) and subsequently separated on sodium dodecyl sulfate 12.75% polyacrylamid gels (SDS-PAGE) (Invitrogen, Groningen, The Netherlands). In”
(§4) Having identified the most likely positions of the dimerization interfaces, mutants of MIA were tested for their capability to form dimers by Western blot analysis (FIG. 1B). MIA mutants were expressed in an in vitro transcription/translation system. […] The sites of mutations not affecting functional activity (FIG. 1D, depicted by amino acid labels D29, S81 etc.) are located outside the dimerization regions, whereas G61R (FIG. 1D, depicted by G61) is buried in the dimerization cleft (depicted by the darker grey are in the left panel) in close proximity to the distal loop.

[8] = molecular target: the molecule itself; experiment: Western blot for dimer band, RTS-expressed mutant
Description: as §1, with “In” for “Protein samples were denaturated at 70° C. for 10 min after addition of reducing and denaturing Roti-Load buffer (Roth, Karlsruhe, Germany) and subsequently separated on sodium dodecyl sulfate 12.75% polyacrylamid gels (SDS-PAGE) (Invitrogen, Groningen, The Netherlands). In”
as §4

[9] = molecular target: B1; experiment: HTFP competition assay: displacement of MIA-Ru(bpy)3 from immobilised MIA-biotin
Description: as §2, §3

Question: How did the “induction of Aggrecan during differentiation” value [1] turn out when “FHWH (Peptide Sequence identified from HTFP assay screening) [JPT55]” was run?
Answer: inhibit the induction

Question: And the “induction of Sox9 during differentiation” value [1]?
Answer: inhibit the induction

Question: What about the “induction of collagen type II during differentiation” value [1] of the same molecule?
Answer: inhibit the induction

Question: How did the “inhibition of dimerization of MIA” value [2] turn out when “FHWRYPDPDPGQ (Peptide Sequence identified from HTFP assay screening) [JPT79]” was run?
Answer: efficiently inhibited

Question: With “HHH (Peptide Sequence identified from HTFP assay screening) [JPT71]” as the molecule, how does the “induction of Sox9 mRNA by TGFβ3” value [3] read?
Answer: inhibit the induction of Sox9 mRNA by TGFβ3 significantly

Question: For “WHF (Peptide Sequence identified from HTFP assay screening) [JPT67]”, which “inhibition of MIA-activity (neutralization of the MIA effect on invasion)” value [4] is on record?
Answer: inhibit MIA-activity

Question: With “WWW (Peptide Sequence identified from HTFP assay screening) [JPT73]” as the molecule, how does the “induction of Aggrecan during differentiation” value [1] read?
Answer: inhibit the induction

Question: And the “induction of Sox9 during differentiation” value [1]?
Answer: inhibit the induction

Question: And the “induction of collagen type II during differentiation” value [1]?
Answer: inhibit the induction

Question: What about the “inhibition of MIA-activity (neutralization of the MIA effect on invasion)” value [4] of the same molecule?
Answer: inhibit MIA-activity

Question: Does WHWRYP (also called WHWRYP) [peptide JPT26] bind [5]?
Answer: binds

Question: Does FHWRYPGPGPGQ [peptide JPT4] bind [5]?
Answer: binds

Question: Does B1 bind [6]?
Answer: binds

B2: MIA mutant K91N (other)
chain: GPMPKLADRKLCADQECSHPISMAVALQDYMAPDCRFLTIHRGQVVYVFSKLKGRGRLFWGGSVQGDYYGDLAARLGYFPSSIVREDQTLNPGKVDVKTDKWDFYCQ
notes: Expressed in the RTS in vitro transcription/translation system
Question: Does B2 bind [7]?
Answer: binds

B3: MIA mutant G61R (other)
chain: GPMPKLADRKLCADQECSHPISMAVALQDYMAPDCRFLTIHRGQVVYVFSKLKGRGRLFWRGSVQGDYYGDLAARLGYFPSSIVREDQTLKPGKVDVKTDKWDFYCQ
notes: Expressed in the RTS in vitro transcription/translation system, unpurified
Question: Does B3 bind [8]?
Answer: no binding

B4: MIA mutant D29G/Y69H (other)
chain: GPMPKLADRKLCADQECSHPISMAVALQGYMAPDCRFLTIHRGQVVYVFSKLKGRGRLFWGGSVQGDYHGDLAARLGYFPSSIVREDQTLKPGKVDVKTDKWDFYCQ
notes: as for B2
Question: Does B4 bind [7]?
Answer: binds

B5: MIA mutant T89P (other)
chain: GPMPKLADRKLCADQECSHPISMAVALQDYMAPDCRFLTIHRGQVVYVFSKLKGRGRLFWGGSVQGDYYGDLAARLGYFPSSIVREDQPLKPGKVDVKTDKWDFYCQ
notes: as for B2
Question: Does B5 bind [7]?
Answer: binds

B6: MIA mutant V46F/S81P (other)
chain: GPMPKLADRKLCADQECSHPISMAVALQDYMAPDCRFLTIHRGQVFYVFSKLKGRGRLFWGGSVQGDYYGDLAARLGYFPPSIVREDQTLKPGKVDVKTDKWDFYCQ
notes: as for B2
Question: Does B6 bind [7]?
Answer: binds

Question: Does HHHHHHFHWRYPLPLPGQ [peptide JPT61] bind [5]?
Answer: binds

B7: peptide AR71 (Ac-FHWRYPLPLPGQ-NH2) (peptide)
peptide: Ac-FHWRYPLPLPGQ-NH2
notes: Dodecapeptide previously identified by phage display
Question: Does B7 bind [9]?
Answer: binds

Question: Does FHWRYPDPDPGQ [peptide JPT79] bind [5]?
Answer: binds

Question: Does FHWRYPLPLPGQHHHHHH [peptide JPT62] bind [5]?
Answer: binds

Question: Does FHWH (also called FHWH) [peptide JPT55] bind [5]?
Answer: binds
